{"source": "ChEMBL document CHEMBL1157388", "about": "“Recent developments in fragment-based drug discovery” (J Med Chem, 2008)", "proteins": {"B1": {"name": "Receptor-type tyrosine-protein phosphatase beta (Homo sapiens), P23467 (protein)", "chain": "MLSHGAGLALWITLSLLQTGLAEPERCNFTLAESKASSHSVSIQWRILGSPCNFSLIYSSDTLGAALCPTFRIDNTTYGCNLQDLQAGTIYNFRIISLDEERTVVLQTDPLPPARFGVSKEKTTSTSLHVWWTPSSGKVTSYEVQLFDENNQKIQGVQIQESTSWNEYTFFNLTAGSKYNIAITAVSGGKRSFSVYTNGSTVPSPVKDIGISTKANSLLISWSHGSGNVERYRLMLMDKGILVHGGVVDKHATSYAFHGLTPGYLYNLTVMTEAAGLQNYRWKLVRTAPMEVSNLKVTNDGSLTSLKVKWQRPPGNVDSYNITLSHKGTIKESRVLAPWITETHFKELVPGRLYQVTVSCVSGELSAQKMAVGRTFPDKVANLEANNNGRMRSLVVSWSPPAGDWEQYRILLFNDSVVLLNITVGKEETQYVMDDTGLVPGRQYEVEVIVESGNLKNSERCQGRTVPLAVLQLRVKHANETSLSIMWQTPVAEWEKYIISLADRDLLLIHKSLSKDAKEFTFTDLVPGRKYMATVTSISGDLKNSSSVKGRTVPAQVTDLHVANQGMTSSLFTNWTQAQGDVEFYQVLLIHENVVIKNESISSETSRYSFHSLKSGSLYSVVVTTVSGGISSRQVVVEGRTVPSSVSGVTVNNSGRNDYLSVSWLLAPGDVDNYEVTLSHDGKVVQSLVIAKSVRECSFSSLTPGRLYTVTITTRSGKYENHSFSQERTVPDKVQGVSVSNSARSDYLRVSWVHATGDFDHYEVTIKNKNNFIQTKSIPKSENECVFVQLVPGRLYSVTVTTKSGQYEANEQGNGRTIPEPVKDLTLRNRSTEDLHVTWSGANGDVDQYEIQLLFNDMKVFPPFHLVNTATEYRFTSLTPGRQYKILVLTISGDVQQSAFIEGFTVPSAVKNIHISPNGATDSLTVNWTPGGGDVDSYTVSAFRHSQKVDSQTIPKHVFEHTFHRLEAGEQYQIMIASVSGSLKNQINVVGRTVPASVQGVIADNAYSSYSLIVSWQKAAGVAERYDILLLTENGILLRNTSEPATTKQHKFEDLTPGKKYKIQILTVSGGLFSKEAQTEGRTVPAAVTDLRITENSTRHLSFRWTASEGELSWYNIFLYNPDGNLQERAQVDPLVQSFSFQNLLQGRMYKMVIVTHSGELSNESFIFGRTVPASVSHLRGSNRNTTDSLWFNWSPASGDFDFYELILYNPNGTKKENWKDKDLTEWRFQGLVPGRKYVLWVVTHSGDLSNKVTAESRTAPSPPSLMSFADIANTSLAITWKGPPDWTDYNDFELQWLPRDALTVFNPYNNRKSEGRIVYGLRPGRSYQFNVKTVSGDSWKTYSKPIFGSVRTKPDKIQNLHCRPQNSTAIACSWIPPDSDFDGYSIECRKMDTQEVEFSRKLEKEKSLLNIMMLVPHKRYLVSIKVQSAGMTSEVVEDSTITMIDRPPPPPPHIRVNEKDVLISKSSINFTVNCSWFSDTNGAVKYFTVVVREADGSDELKPEQQHPLPSYLEYRHNASIRVYQTNYFASKCAENPNSNSKSFNIKLGAEMESLGGKCDPTQQKFCDGPLKPHTAYRISIRAFTQLFDEDLKEFTKPLYSDTFFSLPITTESEPLFGAIEGVSAGLFLIGMLVAVVALLICRQKVSHGRERPSARLSIRRDRPLSVHLNLGQKGNRKTSCPIKINQFEGHFMKLQADSNYLLSKEYEELKDVGRNQSCDIALLPENRGKNRYNNILPYDATRVKLSNVDDDPCSDYINASYIPGNNFRREYIVTQGPLPGTKDDFWKMVWEQNVHNIVMVTQCVEKGRVKCDHYWPADQDSLYYGDLILQMLSESVLPEWTIREFKICGEEQLDAHRLIRHFHYTVWPDHGVPETTQSLIQFVRTVRDYINRSPGAGPTVVHCSAGVGRTGTFIALDRILQQLDSKDSVDIYGAVHDLRLHRVHMVQTECQYVYLHQCVRDVLRARKLRSEQENPLFPIYENVNPEYHRDPVYSRH"}}, "key": {"[1]": {"substrate": "O=P(O)(O)Oc1ccc(-c2ccccc2)cc1"}, "[2]": {"substrate": "O=[N+]([O-])c1ccc(OP(=O)(O)O)cc1"}}}
{"protein": "B1", "values": [{"measurement": "Km", "setting": "[1]", "value": 86, "unit": "µM"}, {"measurement": "Km", "setting": "[2]", "value": 1340, "unit": "µM"}]}
